This data set in a line: label from the status in PepcDB records.

On to “MSRDGGDVIETAVKSLGKGFDLTADFRLKYCKDGDGSAGDDRLVVLDQTQNRELHIPGFGVFQNVSADINCDKGERTRFRSDILDFNKMSEYFNQRSSVTGKIPSGNFNATFGFQSGSWATDAANVKSLGLDASVVTLFNLHIHNPNRLRLTDRVRNAVPSSWDPQLLARFIERYGTHVITGVSVGGQDVVVVRQDKSSDLDNDLLRHHLYDLGDQLFTGSCLLSTRRLNKAYHHSHSQPKFPEAFNVFDDKQTVAFNNFSINSQNGITVICAKRGGDGRAKSHSEWLITVPDKPDAINFNFIPITSLLKDVPGSGLLSHAMSLYLRYKPPLMDLQYFLDFSGPRAWAPVHNDLPFGAAPNMASAYPALHINFMGPKLYVNTTPVTSEKNPVTGMRFFLEGKKCNRLAIHLQHLDNTRTTVGEKITDEHIWRGSDQITDNDRYFEPLNGKKFSHVCTVPVKYDPNWIKTTSNHKSQNDVAFIVTGAQLEVKKHGSKSVLHLRLRYTKVSDHYVVQNSWVHGPIGTSQKSGIFSSMSMPLTSGSVHHNMIQKDKNEVVLDSGVFPGGPPVPANNKIVKFVDLSQLCRGPQHSPGHWLVTGVRLYLDKGKLCLHVKFALLHRQRLLVSS”, for which the protein production entry is given as “failed”.

Take “MSRFMARIMVNGLNEPGTLAKVAQTVAGLDVNIRLLNTVRVAADFTEMMLEVEVWDLRQLNQLLAQMKELDCIATVRRLYELEHHHHHH”: the protein production result is listed as “not failed”.

On to “MSRGDKMLKFEIKARDGAGRIGKLEVNGKKIETPAIMPVVNPKQMVVEPKELEKMGFEIIITNSYIIYKDEELRRKALELGIHRMLDYNGIIEVDSGSFQLMKYGSIEVSNREIIEFQHRIGVDIGTFLDIPTPPDAPREQAVKELEITLSRAREAEEIKEIPMNATIQGSTYTDLRRYAARRLSSMNFEIHPIGGVVPLLESYRFRDVVDIVISSKMALRPDRPVHLFGAGHPIVFALAVAMGVDLFDSASYALYAKDDRYMTPEGTKRLDELDYFPCSCPVCSKYTPQELREMPKEERTRLLALHNLWVIKEEIKRVKQAIKEGELWRLVDERARSHPKLYSAYKRLLEHYTFLEEFEPITKKSALFKISNESLRWPVVRRAKERAKSINERFGELVEHPIFGRVSRYLSLTYPFAQSEAEDDFKIEKPTKEDAIKYVMAIAEYQFGEGASRAFDDAKVELSKTGMPRQVKVNGKRLATVRADDGLLTLGIEGAKRLHRVLPYPRMRVVVNKEAEPFARKGKDVFAKFVIFADPGIRPYDEVLVVNENDELLATGQALLSGREMIVFQYGRAVKVRKGVE”, for which the protein production entry is “not failed”.

Take “MSRGHCILAHGFESGPDALKVTALAEVAERLGWTHERPDFTDLDARRDLGQLGDVRGRLQRLLEIARAATEKGPVVLAGSSLGSYIAAQVSLQVPTRALFLMVPPTKMGPLPALDAAAVPISIVHAWHDELIPAADVIAWAQARSARLLLVDDGHRLGAHVQAASRAFAELLQSL”: the protein production result is recorded as “not failed”.

For the sequence “MSRIASHTQGLFADLREWIDLRVDLAILEMEERLDAFKNDLALGLTVAVFAFFAAFFSLTTVALGVGWLLGHPFWGFLAVSVALILIIVTLRVTKPALMPPSNLFESLRGERAASDEGPSSRPASAAVDEADGAEAQASAPDVKA”, the protein production entry is “failed”.

For “MSRILITGAAGMVGRALLEELDEHDVFATDLVPPKATGAVTWLPMDVTTDDPDRIVGEVRPQVVIHLASIVTPGVARAVAHRVDVGGTRAVLDACLAHGVRRLVVTSSGAAYGYHADNPMPLRESDPLRGNPEFAYADHKRQVEEILAEARQSAPQLEQVVLRVGTVLGAGTENQITALFRKPRLLAVRGSESPFVFIWTRDLARILARAAGEGPAGIYNVAGDGAMGVSDLARALGKPVLRLPALTLKAALALARPLGLSRYGPEQVRFLQYRPVLANDALKQVFGYVPELASAEVFDLWRREAGL”, the protein production result is on record as “failed”.

As to “MSRILVLAVVALALLNPLFLVVHSLPTGVSAHDGPIYTNAVLGYANITSLQAYNSSFNVPYGASLQLNVVLEATSTNGNTYYFWLQNVAQFVTNESLMCFTDNVWNYTTATAEISNVTGNGGIGFTYNILFGHPTFYGYSTEPMPYRFPLALYLLINESLSSNGVIVNFIYVVLQNGSLVPPHPVTYDSVFIPVPDPQSAYIIVNDSLTPSAVVLNFTLFYQEALGNLMDTELVWGGYENGEFTTFTQMSSYLGLFYLSGNSFVPFSTVYTYGNDTAESTGDLYVSIASNGDAYVTVGTPDYGLLTDSFHPYIPGFTFVNVTSKVPFLVNGTYTNSFVGYVVHPVTITFYRNYTVNSSSYAVLDYPSQSLTITPSNTFKNVIITPQYTYYYKVIVNSSRPLLLNISGKETLTNGTLWLPQGTSVSLVNNTYYVSSGERFVVNNTYPNLPLTVENPTTITVTLEKQFKLTINSPIPLLLSINGKSRLFNGTTWVLQGSAVELVNNTYYVSSGERYVVSSISPSTPIEVSGPMNISVELVKEYKVEIVSSQPVMATIKGETEPVNGTAWLPQGSVIHLTANLPVYLKGYFVGTYNASPGEQVTINGPIYEKLVVQLNYTFLEELVIPIVTAVVIVVAITRRR”, the protein production result is “failed”.

Consider “MSRQPLSREDTAILVPALNEALRIREVVTDALTYCSHVIVIDDGSDDGTAECIAGMPVTLIRHPQRMGKGAALRSGFAQAQRLGMRAVMTMDGDGQHKAADFPRLLAAANRHPGCVIIGARMRKRATQPTIRRIGNDFGDWGIAWGCGFRLIDSQSGQRLYPASVFTLPNVPGEGFVFEAQLLISAARQAGARVVAVPIETRYAGTSPGTFRKSHFRLVRDLWNITSHVVKQVWAYGHVWREYRRVRANPVIVDDPDGEFATVPAVTKSNHSSLEHHHHHH”, for which the protein production result is recorded as “failed”.

Take “MSRRTVSLTVLALVLALLILVAPDVLLVIFAGVLFGVFLSAGGGLVQRVTGLQRGAGIALFIVLVLLALTGAFLAFAPAMFEQADALARQLPPAFEDLRDRISAYSWGPTLLSRLAPSRLLSSDGGFASTAVSATFGALGNVVIILFIGLYTAVDPGLYRRGLRALLAPPLRPRGDEVLAIADGTLRGWLGGQIISMTVVGVLTWLGLWLIGIPLAFILGLIAALLTFIPNIGPVLSAVPALLLALPEGAEQVGLVLAVFLTVQTFESYLVTPLIQKERVALPPALIISAQLLMGVLFGLMGLLLATPLAALALALVREVYVHDYLEEGPAKAQGPDRAD”: the protein production entry is listed as “failed”.

With “MSRSPRYTNFILIAVMLGALLPAAGCLEEHEVASAGLSSATMSVNLTYYTEQLPPYNYMENSMLQGLSVDLLEEITEKMGKKVTREEVHLVPWTEGYQAALNGNNTVLFSMARSPEREQFFKWAGPIYSDRYVLFAKRDRGITIKNPEDLKGYRIGVIADDIATRQLLDIGVNQSQIAPESNVSAIIAGLENGDIDLWACPEDAGRYFTEELTGSYYSYTVVYQLETQDLYYAFSKDVPDSVVQSFQQALDAVKREKDVEGISTYDRILGKYIPSIGLARLNYLTEEWAPFNYQEDGNVTGISVEILEAVFKNIGVNRSRADVRIVPLAEGFQIAQNNTSTVLFSIVRTPEREPFYKWAGPFTRANFVLYAPVSSNITISSPKDLNQYRIGAIRASIENDLLASQGVNESQIINGQTPEDLFRMLEEGQIDLWATGDLAGRHQMLRTAEDPNAYEIVYTLSENDFYYIFSKDVPDTLVSAFQQALDTVRDQRDEQGVSDYERIIYRNLGVGCAPQTFTDDTVMELVNTTVKAIEKNASDTFRRINAGEAPYRDSKDPGLYAFVYDTNLTIVAHADNIQLVGTNFRGKTDVTGKPFRDEILEGALKNGTGSVDYVYMHPVQTNLYYKTAYYRLTRGSDGNSYIVCSGNYKLCQNQSEAMPANNSTASPEELAAFVEKAFEYAHENGQEVALREFNNQAGQFVDGKFYIFAYDTNGTTLALPFQPEIIGTKRWNVTDTNGTLFIQDLVDTAQSGGGFVRYFYADPADNFTVKQKLSYVMMVNQSWIIGSGIYDPQKDSAIVRAGTDPQVRENLKSFVGEAIEYANTNGKDTAIEEFNDRNGAFVRGNLYIYAFDYNGTTLALPYQAQLIGTNLSELQDPYGVNYTKVEIFMAQQGGGFLFYHYYNPARNMTLEPKMSYVQKVDDTWWLGAGTYTEDLNRITKRD”, the protein production result is recorded as “failed”.

With “MSRTNINFNNKRTELANKIWDIFIANGYENTTLAFIINKLGISKGALYHYFSSKEECADAAIENRVAFFSNEVLKESEEGLNSIERLKKILLAGIKITSVNEQVKEINSPSNKIFHQKLMVAIIKYFAPIYADIISQGNEEGVFKVKYPLETAEIILTLSHFYLDEDLFKWKKEDMSLKLTAFKETLIKILDADEDTFDFIK”, the protein production entry is listed as “not failed”.

“MSRTTASTCMGERRQSSLKRLAIFRPVQRLPARELLPLDGDRWLVAAQRREPERGPNGLGNGQRRPVQFRREVPGEHDVCIHIHRAVGFEDVIHDEPHPVGGLPFDDIRCGHIYALLGQSIGYVRVVSDADLDDGIDRRQSVDKRAGGVGHVVQFMRCGRICVPMHVDIVPVGEVSAQVKREASDGLRSVYDCEVSMHEPQSIPAGAYDGDRDQYRAEEFIDLARRVGSGGKNIAITPKDLFYRRRNYVFGLAYLGGSGSVISTYRLQTSSDGGFSNRSAGEIFSQRVRKEVVHEVGHTLGLEHCDNKRCVMNFSPTVRQVDVKEVSLCGSCQRNVL”: the protein production result is recorded as “failed”.

Turning to “MSRVHNRALSAAELQSFGDELDAIRARVLSQVGAADARYIRRIVAAVRWTGVAGRALLFLGAFVHSVLIPAWIAGVLLLALSKILENMELGHNVMHGQYDWMGDPQLNGNTYEWDIVATGDNWRKTHNFKHHTYTNVRGMDDDIGYGLLRIFPEQRWRPFYLLQPFIAVVFALLFEWGVAIQDLRLGRWFAGKMKAAELRASFLPVGRKMGRQMLKDYIVFPLLAGPFFLTVLLGNLAANVLRSIWTFVIIFCGHFTADAEVFPKESIRNESRGHWYLRQLRGSSNLTGGKLMNVLSGNLSHQIEHHFYPDLPANRYAQIAVEVKQVCARYGQHYNTGSLPRQFGQVMWRIVRHAFPSRPKPVRQGSGALQSA”, the protein production entry is “failed”.

In the case of “MSSAKSARYNRFSGGPANLPASDSSGTRMETTFGPTFSTVTTITKAADGTSTYKQHRRTPSSSSTLAYSPRDEEDGMPPINTPRRSDSAISVRSLHSESSMSLRSTFSLPEEEEEPEPLVFAEQPSVKLCCQLCCSVFKDPVITTCGHTFCRRCALKSEKCPVDNAKLTVVVNNIAVAEQIGELFIHCRHGCRAAGTGKPGVFEVDPRGCPFTIKLSARKDHESSCDYRPVRCPNNPSCPPLLKMNLEAHLKECEHIKCPHSKYGCTFIGNQDTYETHLETCRFEGLKEFLQQTDDRFHEMHVALAQKDQEIAFLRSMLGKLSEKIDQLEKSLELKFDVLDENQSKLSEDLMEFRRDASMLNDELSHINARLNMGILGSYDPQQIFKCKGTFVGHQGPVWCLCVYSMGDLLFSGSSDKTIKVWDTCTTYKCQKTLEGHDGIVLALCIQGCKLYSGSADCTIIVWDIQNLQKVNTIRAHDNPVCTLVSSHNMLFSGSLKAIKVWDIVGTELKLKKELTGLNHWVRALVAAQSYLYSGSYQTIKIWDIRTLDCIHVLQTSGGSVYSIAVTNHHIVCGTYENLIHVWDIESKEQVRTLTGHVGTVYALAVISTPDQTKVFSASYDRSLRVWSMDNMICTQTLLRHQGSVTALAVSRGRLFSGAVDSTVKVWTC”, the protein production result is listed as “failed”.

For the sequence “MSSAQFDHVTVIKKSNVYFGGLCISHTVQFEDGTKKTLGVILPTEQPLTFETHVPERMEIISGECRVKIADSTESELFRAGQSFYVPGNSLFKIETDEVLDYVCHLEG”, the protein production result is on record as “not failed”.

On to “MSSATASIKLSNGVEMPVIGLGTWQSSPAEVITAVKTAVKAGYRLIDTASVYQNEEAIGTAIKELLEEGVVKREELFITTKAWTHELAPGKLEGGLRESLKKLQLEYVDLYLAHMPAAFNDDMSEHIASPVEDVWRQFDAVYKAGLAKAVGVSNWNNDQISRALALGLTPVHNSQVELHLYFPQHDHVDFCKKHNISVTSYATLGSPGRVNFTLPTGQKLDWAPAPSDLQDQNVLALAEKTHKTPAQVLLRYALDRGCAILPKSIQENRIKENFEVFDFSLTEEDIAKLEESKNSQRLFLQDFMTGHPEDAFAAERK”, for which the protein production result was “not failed”.

These data come from a protein production outcome set (Wang et al. 2014).
